{"source": "patent US6869925", "about": "(Amgen, dated 2005)", "key": {"[1]": {"biological_target": "SLPI binding sites on U937 cells (human monocyte cell line; intact cells, PMA-induced cells or plasma membranes) (human)", "test": "competition with 125I-SLPI, intact U937 cells, cold SLPI at 26 nM"}, "[2]": {"biological_target": "SLPI binding sites on HuT78 cells (human T cell line) (human)", "test": "Scatchard plot of 125I-SLPI saturation binding, intact HuT78 cells"}, "[3]": {"biological_target": "SLPI binding sites on HuT78 cells (human T cell line) (human)", "test": "125I-SLPI saturation binding, intact HuT78 cells, *SLPI at 5120 pM"}, "[4]": {"biological_target": "SLPI binding sites on HuT78 cells (human T cell line) (human)", "test": "125I-SLPI saturation binding, intact HuT78 cells, *SLPI at 640 pM"}, "[5]": {"biological_target": "SLPI binding sites on HuT78 cells (human T cell line) (human)", "test": "competition with 125I-SLPI, intact HuT78 cells, cold SLPI at 0.024 nM"}, "[6]": {"biological_target": "SLPI binding sites on U937 cells (human monocyte cell line; intact cells, PMA-induced cells or plasma membranes) (human)", "test": "competition with 125I-SLPI, U937 plasma membranes, competitor at 83.9 nM"}, "[7]": {"biological_target": "SLPI binding sites on U937 cells (human monocyte cell line; intact cells, PMA-induced cells or plasma membranes) (human)", "test": "competition with 125I-SLPI, intact U937 cells, competitor at 270 nM"}, "[8]": {"biological_target": "SLPI binding sites on U937 cells (human monocyte cell line; intact cells, PMA-induced cells or plasma membranes) (human)", "test": "125I-SLPI saturation binding, U937 cells minus PMA, *SLPI at 640 pM"}, "[9]": {"biological_target": "SLPI binding sites on U937 cells (human monocyte cell line; intact cells, PMA-induced cells or plasma membranes) (human)", "test": "competition with 125I-SLPI, intact U937 cells, cold SLPI at 2.6 nM"}, "[10]": {"biological_target": "SLPI binding sites on U937 cells (human monocyte cell line; intact cells, PMA-induced cells or plasma membranes) (human)", "test": "125I-SLPI saturation binding, U937 cells minus PMA, *SLPI at 80 pM"}, "[11]": {"biological_target": "SLPI binding sites on HuT78 cells (human T cell line) (human)", "test": "competition with 125I-SLPI, intact HuT78 cells, cold SLPI at 270 nM"}, "[12]": {"biological_target": "SLPI binding sites on HuT78 cells (human T cell line) (human)", "test": "125I-SLPI saturation binding, intact HuT78 cells, *SLPI at 2560 pM"}, "[13]": {"biological_target": "SLPI binding sites on HuT78 cells (human T cell line) (human)", "test": "competition with 125I-SLPI, intact HuT78 cells, cold SLPI at 26 nM"}, "[14]": {"biological_target": "SLPI binding sites on U937 cells (human monocyte cell line; intact cells, PMA-induced cells or plasma membranes) (human)", "test": "competition with 125I-SLPI, intact U937 cells, competitor at 84 nM"}, "[15]": {"biological_target": "SLPI binding sites on U937 cells (human monocyte cell line; intact cells, PMA-induced cells or plasma membranes) (human)", "test": "125I-SLPI saturation binding, intact U937 cells, *SLPI at 2560 pM"}}}
{"substance": "serine leukocyte protease inhibitor (SLPI) (from UniProt P03973 26-132)", "values": [{"measurement": "% *SLPI BOUND", "setting": "[1]", "result": 12, "unit": "%"}, {"measurement": "Kd", "setting": "[2]", "result": 2, "unit": "nM"}, {"measurement": "bound pM", "setting": "[3]", "result": 13.5, "unit": "pM"}, {"measurement": "bound per free", "setting": "[3]", "result": 0.0026}, {"measurement": "sites bound per cell (sites per cell)", "setting": "[3]", "result": 813}, {"measurement": "specific cpm", "setting": "[3]", "result": 538, "unit": "cpm"}, {"measurement": "bound pM", "setting": "[4]", "result": 2.53, "unit": "pM"}, {"measurement": "bound per free", "setting": "[4]", "result": 0.0039}, {"measurement": "sites bound per cell (sites per cell)", "setting": "[4]", "result": 152}, {"measurement": "specific cpm", "setting": "[4]", "result": 101, "unit": "cpm"}, {"measurement": "% *SLPI BOUND", "setting": "[5]", "result": 88, "unit": "%"}, {"measurement": "CPM *SLPI BOUND", "setting": "[6]", "result": 2070, "unit": "cpm"}, {"measurement": "% *SLPI BOUND", "setting": "[7]", "result": 5, "unit": "%"}, {"measurement": "bound *SLPI (pM)", "setting": "[8]", "result": 207, "unit": "pM"}, {"measurement": "bound per free", "setting": "[8]", "result": 0.478}, {"measurement": "sites bound per cell (sites per cell)", "setting": "[8]", "result": 12500}, {"measurement": "specific cpm", "setting": "[8]", "result": 2210, "unit": "cpm"}, {"measurement": "% *SLPI BOUND", "setting": "[9]", "result": 55, "unit": "%"}, {"measurement": "bound *SLPI (pM)", "setting": "[10]", "result": 37, "unit": "pM"}, {"measurement": "bound per free", "setting": "[10]", "result": 0.86}, {"measurement": "sites bound per cell (sites per cell)", "setting": "[10]", "result": 2230}, {"measurement": "specific cpm", "setting": "[10]", "result": 400, "unit": "cpm"}, {"measurement": "% *SLPI BOUND", "setting": "[11]", "result": 0, "unit": "%"}, {"measurement": "bound pM", "setting": "[12]", "result": 9.98, "unit": "pM"}, {"measurement": "bound per free", "setting": "[12]", "result": 0.0039}, {"measurement": "sites bound per cell (sites per cell)", "setting": "[12]", "result": 501}, {"measurement": "specific cpm", "setting": "[12]", "result": 398, "unit": "cpm"}, {"measurement": "% *SLPI BOUND", "setting": "[13]", "result": 37, "unit": "%"}, {"measurement": "% *SLPI BOUND", "setting": "[14]", "result": 7, "unit": "%"}, {"measurement": "bound *SLPI (pM)", "setting": "[15]", "result": 339, "unit": "pM"}, {"measurement": "bound per free", "setting": "[15]", "result": 0.153}, {"measurement": "sites bound per cell (sites per cell)", "setting": "[15]", "result": 20400}, {"measurement": "specific cpm", "setting": "[15]", "result": 13500, "unit": "cpm"}]}
